These results are taken from patent publication US20250218531A1 (ABSCI, published 2025).

This assay has as its target human epidermal growth factor receptor 2 (HER2) extracellular domain (human, UniProt P04626 23-629). Briefly: SPR. On the technique in general: Surface plasmon resonance follows binding to a sensor surface in real time, without labels.

The Kd is the free concentration of one partner at which half of the binding sites on the other are occupied at equilibrium, for simple one-to-one binding. A higher Kd goes with weaker binding.

B1: Trastuzumab HCDR3 variant ARGYFGGYYFAY (Fab, V domains shown)
VH: EVQLVESGGGLVQPGGSLRLSCAASGFNIKDTYIHWVRQAPGKGLEWVARIYPTNGYTRYADSVKGRFTISADTSKNTAYLQMNSLRAEDTAVYYCARGYFGGYYFAYWGQGTLVTVSS
VL: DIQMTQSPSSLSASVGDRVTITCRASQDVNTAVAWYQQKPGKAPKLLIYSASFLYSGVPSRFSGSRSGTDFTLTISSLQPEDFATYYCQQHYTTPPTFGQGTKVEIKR
On to B1, for which the affinity, expressed as Kd, was 130 nM and the “log(KD (M))” value is -6.88 log(M).

B2: Trastuzumab HCDR3 variant ARYGTYGYAMDY (Fab, V domains shown)
VH: EVQLVESGGGLVQPGGSLRLSCAASGFNIKDTYIHWVRQAPGKGLEWVARIYPTNGYTRYADSVKGRFTISADTSKNTAYLQMNSLRAEDTAVYYCARYGTYGYAMDYWGQGTLVTVSS
VL: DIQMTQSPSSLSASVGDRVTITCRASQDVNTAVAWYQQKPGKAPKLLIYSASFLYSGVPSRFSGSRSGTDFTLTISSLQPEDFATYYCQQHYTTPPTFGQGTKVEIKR
For B2, the Kd is 65.5 nM and the “log(KD (M))” value was -7.18 log(M).

B3: Trastuzumab HCDR3 variant ARGYYHYYHYQY (Fab, V domains shown)
VH: EVQLVESGGGLVQPGGSLRLSCAASGFNIKDTYIHWVRQAPGKGLEWVARIYPTNGYTRYADSVKGRFTISADTSKNTAYLQMNSLRAEDTAVYYCARGYYHYYHYQYWGQGTLVTVSS
VL: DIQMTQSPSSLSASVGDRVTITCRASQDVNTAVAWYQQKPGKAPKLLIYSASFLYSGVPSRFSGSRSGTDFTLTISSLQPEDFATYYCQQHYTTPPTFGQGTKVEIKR
For B3, the affinity, expressed as Kd, was 95.1 nM and the “log(KD (M))” value was -7.02 log(M).

B4: Trastuzumab HCDR3 variant ARGYWWLYGFAY (Fab, V domains shown)
VH: EVQLVESGGGLVQPGGSLRLSCAASGFNIKDTYIHWVRQAPGKGLEWVARIYPTNGYTRYADSVKGRFTISADTSKNTAYLQMNSLRAEDTAVYYCARGYWWLYGFAYWGQGTLVTVSS
VL: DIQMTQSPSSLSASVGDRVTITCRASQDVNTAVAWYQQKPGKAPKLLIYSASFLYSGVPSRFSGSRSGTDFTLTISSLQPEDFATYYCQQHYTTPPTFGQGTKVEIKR
In the case of B4, the Kd worked out at 172 nM and the “log(KD (M))” value was -6.77 log(M).

B5: Trastuzumab HCDR3 variant ARSGEGYYAFDY (Fab, V domains shown)
VH: EVQLVESGGGLVQPGGSLRLSCAASGFNIKDTYIHWVRQAPGKGLEWVARIYPTNGYTRYADSVKGRFTISADTSKNTAYLQMNSLRAEDTAVYYCARSGEGYYAFDYWGQGTLVTVSS
VL: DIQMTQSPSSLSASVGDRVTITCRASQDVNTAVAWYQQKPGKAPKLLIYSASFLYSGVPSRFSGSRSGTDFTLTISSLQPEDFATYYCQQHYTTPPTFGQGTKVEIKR
As for B5, the affinity, expressed as Kd, was 210 nM and the “log(KD (M))” value was -6.68 log(M).

B6: Trastuzumab HCDR3 variant ARYGYYGYWFDY (Fab, V domains shown)
VH: EVQLVESGGGLVQPGGSLRLSCAASGFNIKDTYIHWVRQAPGKGLEWVARIYPTNGYTRYADSVKGRFTISADTSKNTAYLQMNSLRAEDTAVYYCARYGYYGYWFDYWGQGTLVTVSS
VL: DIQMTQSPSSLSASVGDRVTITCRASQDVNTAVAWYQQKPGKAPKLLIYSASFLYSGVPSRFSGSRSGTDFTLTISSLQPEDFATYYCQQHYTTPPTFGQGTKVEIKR
Turning to B6, the affinity, expressed as Kd, was 59.4 nM and the “log(KD (M))” value was -7.23 log(M).

B7: Trastuzumab HCDR3 variant ARYHFSGYFMDA (Fab, V domains shown)
VH: EVQLVESGGGLVQPGGSLRLSCAASGFNIKDTYIHWVRQAPGKGLEWVARIYPTNGYTRYADSVKGRFTISADTSKNTAYLQMNSLRAEDTAVYYCARYHFSGYFMDAWGQGTLVTVSS
VL: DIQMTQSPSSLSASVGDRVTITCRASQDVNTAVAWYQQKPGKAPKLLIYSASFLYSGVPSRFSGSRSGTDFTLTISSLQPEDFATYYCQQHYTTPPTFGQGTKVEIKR
Turning to B7, the Kd was 103 nM and the “log(KD (M))” value was -6.99 log(M).

B8: Trastuzumab HCDR3 variant ARYGRDYYYFDV (Fab, V domains shown)
VH: EVQLVESGGGLVQPGGSLRLSCAASGFNIKDTYIHWVRQAPGKGLEWVARIYPTNGYTRYADSVKGRFTISADTSKNTAYLQMNSLRAEDTAVYYCARYGRDYYYFDVWGQGTLVTVSS
VL: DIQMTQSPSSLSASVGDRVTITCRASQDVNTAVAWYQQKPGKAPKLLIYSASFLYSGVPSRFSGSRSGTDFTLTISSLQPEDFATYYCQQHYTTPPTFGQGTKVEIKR
For B8, the Kd came out at 106 nM and the “log(KD (M))” value is -6.97 log(M).

B9: Trastuzumab HCDR3 variant ARHGSYYYDFDF (Fab, V domains shown)
VH: EVQLVESGGGLVQPGGSLRLSCAASGFNIKDTYIHWVRQAPGKGLEWVARIYPTNGYTRYADSVKGRFTISADTSKNTAYLQMNSLRAEDTAVYYCARHGSYYYDFDFWGQGTLVTVSS
VL: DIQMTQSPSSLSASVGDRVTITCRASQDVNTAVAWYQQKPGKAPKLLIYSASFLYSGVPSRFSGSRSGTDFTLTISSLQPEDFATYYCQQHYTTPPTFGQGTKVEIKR
With B9, the Kd was 56.6 nM and the “log(KD (M))” value was -7.25 log(M).

B10: Trastuzumab HCDR3 variant ARYADYQFHFDN (Fab, V domains shown)
VH: EVQLVESGGGLVQPGGSLRLSCAASGFNIKDTYIHWVRQAPGKGLEWVARIYPTNGYTRYADSVKGRFTISADTSKNTAYLQMNSLRAEDTAVYYCARYADYQFHFDNWGQGTLVTVSS
VL: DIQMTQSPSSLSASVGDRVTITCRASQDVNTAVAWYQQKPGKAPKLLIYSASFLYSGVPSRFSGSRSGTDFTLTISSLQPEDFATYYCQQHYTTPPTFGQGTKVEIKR
B10: the Kd came out at 39.6 nM and the “log(KD (M))” value is -7.4 log(M).

B11: Trastuzumab HCDR3 variant ARYHYSGYFMDS (Fab, V domains shown)
VH: EVQLVESGGGLVQPGGSLRLSCAASGFNIKDTYIHWVRQAPGKGLEWVARIYPTNGYTRYADSVKGRFTISADTSKNTAYLQMNSLRAEDTAVYYCARYHYSGYFMDSWGQGTLVTVSS
VL: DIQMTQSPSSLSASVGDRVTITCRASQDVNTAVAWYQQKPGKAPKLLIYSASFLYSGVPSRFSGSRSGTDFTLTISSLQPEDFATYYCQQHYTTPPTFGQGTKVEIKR
Regarding B11, binding was put at a Kd of 113 nM and the “log(KD (M))” value is -6.95 log(M).

B12: Trastuzumab HCDR3 variant ARYGVYGYAMDY (Fab, V domains shown)
VH: EVQLVESGGGLVQPGGSLRLSCAASGFNIKDTYIHWVRQAPGKGLEWVARIYPTNGYTRYADSVKGRFTISADTSKNTAYLQMNSLRAEDTAVYYCARYGVYGYAMDYWGQGTLVTVSS
VL: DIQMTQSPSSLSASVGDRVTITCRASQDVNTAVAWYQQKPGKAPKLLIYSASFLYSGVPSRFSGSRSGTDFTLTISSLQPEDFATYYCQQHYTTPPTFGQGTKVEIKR
As for B12, the Kd amounted to 53.3 nM and the “log(KD (M))” value is -7.27 log(M).

B13: Trastuzumab HCDR3 variant ARWLYYGYYFDY (Fab, V domains shown)
VH: EVQLVESGGGLVQPGGSLRLSCAASGFNIKDTYIHWVRQAPGKGLEWVARIYPTNGYTRYADSVKGRFTISADTSKNTAYLQMNSLRAEDTAVYYCARWLYYGYYFDYWGQGTLVTVSS
VL: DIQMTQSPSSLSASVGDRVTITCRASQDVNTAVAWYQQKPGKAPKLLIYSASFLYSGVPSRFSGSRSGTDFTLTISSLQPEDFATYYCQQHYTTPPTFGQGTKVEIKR
Turning to B13, the Kd stood at 28 nM and the “log(KD (M))” value was -7.55 log(M).

B14: Trastuzumab HCDR3 variant ARMSYYFYYMDY (Fab, V domains shown)
VH: EVQLVESGGGLVQPGGSLRLSCAASGFNIKDTYIHWVRQAPGKGLEWVARIYPTNGYTRYADSVKGRFTISADTSKNTAYLQMNSLRAEDTAVYYCARMSYYFYYMDYWGQGTLVTVSS
VL: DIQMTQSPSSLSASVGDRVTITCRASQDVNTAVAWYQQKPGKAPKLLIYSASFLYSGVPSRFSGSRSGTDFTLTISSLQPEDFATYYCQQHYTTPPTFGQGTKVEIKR
In the case of B14, the Kd came out at 48.9 nM and the “log(KD (M))” value was -7.31 log(M).

B15: Trastuzumab HCDR3 variant ARYHNTGYFWGA (Fab, V domains shown)
VH: EVQLVESGGGLVQPGGSLRLSCAASGFNIKDTYIHWVRQAPGKGLEWVARIYPTNGYTRYADSVKGRFTISADTSKNTAYLQMNSLRAEDTAVYYCARYHNTGYFWGAWGQGTLVTVSS
VL: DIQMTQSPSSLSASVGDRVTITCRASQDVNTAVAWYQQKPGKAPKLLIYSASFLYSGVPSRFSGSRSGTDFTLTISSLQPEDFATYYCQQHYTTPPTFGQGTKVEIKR
As to B15, binding was put at a Kd of 61 nM and the “log(KD (M))” value was -7.22 log(M).

B16: Trastuzumab HCDR3 variant ARYGGAGYYLDY (Fab, V domains shown)
VH: EVQLVESGGGLVQPGGSLRLSCAASGFNIKDTYIHWVRQAPGKGLEWVARIYPTNGYTRYADSVKGRFTISADTSKNTAYLQMNSLRAEDTAVYYCARYGGAGYYLDYWGQGTLVTVSS
VL: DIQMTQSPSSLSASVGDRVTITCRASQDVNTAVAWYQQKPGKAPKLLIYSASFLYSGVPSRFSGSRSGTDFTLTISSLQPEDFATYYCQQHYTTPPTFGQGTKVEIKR
Take B16: the affinity, expressed as Kd, was 32.4 nM and the “log(KD (M))” value was -7.49 log(M).

B17: Trastuzumab HCDR3 variant ARGYYYYFYYNY (Fab, V domains shown)
VH: EVQLVESGGGLVQPGGSLRLSCAASGFNIKDTYIHWVRQAPGKGLEWVARIYPTNGYTRYADSVKGRFTISADTSKNTAYLQMNSLRAEDTAVYYCARGYYYYFYYNYWGQGTLVTVSS
VL: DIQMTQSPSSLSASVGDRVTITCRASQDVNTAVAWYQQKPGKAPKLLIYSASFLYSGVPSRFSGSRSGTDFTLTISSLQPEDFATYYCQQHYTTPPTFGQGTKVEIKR
For the molecule B17, the Kd came out at 30.3 nM and the “log(KD (M))” value was -7.52 log(M).

B18: Trastuzumab HCDR3 variant ARNYVYWYGMTV (Fab, V domains shown)
VH: EVQLVESGGGLVQPGGSLRLSCAASGFNIKDTYIHWVRQAPGKGLEWVARIYPTNGYTRYADSVKGRFTISADTSKNTAYLQMNSLRAEDTAVYYCARNYVYWYGMTVWGQGTLVTVSS
VL: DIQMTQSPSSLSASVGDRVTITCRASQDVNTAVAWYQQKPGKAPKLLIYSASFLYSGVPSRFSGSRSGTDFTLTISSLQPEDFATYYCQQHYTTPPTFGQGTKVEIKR
Take B18: binding was characterised by a dissociation constant (Kd) of 27.5 nM and the “log(KD (M))” value is -7.56 log(M).

B19: Trastuzumab HCDR3 variant ARWRDYYYYFDY (Fab, V domains shown)
VH: EVQLVESGGGLVQPGGSLRLSCAASGFNIKDTYIHWVRQAPGKGLEWVARIYPTNGYTRYADSVKGRFTISADTSKNTAYLQMNSLRAEDTAVYYCARWRDYYYYFDYWGQGTLVTVSS
VL: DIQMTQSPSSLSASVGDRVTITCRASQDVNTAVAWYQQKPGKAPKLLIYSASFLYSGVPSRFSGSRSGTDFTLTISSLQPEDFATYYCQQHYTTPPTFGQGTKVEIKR
Take B19: the Kd turned out to be 33.8 nM and the “log(KD (M))” value was -7.47 log(M).

B20: Trastuzumab HCDR3 variant ARHHYSGYFHDV (Fab, V domains shown)
VH: EVQLVESGGGLVQPGGSLRLSCAASGFNIKDTYIHWVRQAPGKGLEWVARIYPTNGYTRYADSVKGRFTISADTSKNTAYLQMNSLRAEDTAVYYCARHHYSGYFHDVWGQGTLVTVSS
VL: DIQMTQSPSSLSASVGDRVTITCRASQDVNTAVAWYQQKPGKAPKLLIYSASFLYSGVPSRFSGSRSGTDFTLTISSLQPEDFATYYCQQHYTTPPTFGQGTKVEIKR
B20: binding was characterised by a dissociation constant (Kd) of 148 nM and the “log(KD (M))” value was -6.83 log(M).

B21: Trastuzumab HCDR3 variant ARSYYGAYYFDY (Fab, V domains shown)
VH: EVQLVESGGGLVQPGGSLRLSCAASGFNIKDTYIHWVRQAPGKGLEWVARIYPTNGYTRYADSVKGRFTISADTSKNTAYLQMNSLRAEDTAVYYCARSYYGAYYFDYWGQGTLVTVSS
VL: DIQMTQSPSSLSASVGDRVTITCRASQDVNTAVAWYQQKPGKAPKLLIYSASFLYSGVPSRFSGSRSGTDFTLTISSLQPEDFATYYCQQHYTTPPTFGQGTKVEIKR
For the molecule B21, the affinity, expressed as Kd, was 202 nM and the “log(KD (M))” value is -6.7 log(M).

B22: Trastuzumab HCDR3 variant ARSTDYWHASQY (Fab, V domains shown)
VH: EVQLVESGGGLVQPGGSLRLSCAASGFNIKDTYIHWVRQAPGKGLEWVARIYPTNGYTRYADSVKGRFTISADTSKNTAYLQMNSLRAEDTAVYYCARSTDYWHASQYWGQGTLVTVSS
VL: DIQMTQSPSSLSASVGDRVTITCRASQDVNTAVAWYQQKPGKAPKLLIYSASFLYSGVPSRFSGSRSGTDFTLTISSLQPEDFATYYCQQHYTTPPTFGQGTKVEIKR
Turning to B22, the Kd was determined as 179 nM and the “log(KD (M))” value was -6.75 log(M).

B23: Trastuzumab HCDR3 variant ARWSWPGYEFEF (Fab, V domains shown)
VH: EVQLVESGGGLVQPGGSLRLSCAASGFNIKDTYIHWVRQAPGKGLEWVARIYPTNGYTRYADSVKGRFTISADTSKNTAYLQMNSLRAEDTAVYYCARWSWPGYEFEFWGQGTLVTVSS
VL: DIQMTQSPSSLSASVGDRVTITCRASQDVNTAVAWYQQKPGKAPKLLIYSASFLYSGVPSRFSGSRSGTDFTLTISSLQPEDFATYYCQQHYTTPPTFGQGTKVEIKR
In the case of B23, the affinity, expressed as Kd, was 177 nM and the “log(KD (M))” value is -6.75 log(M).

B24: Trastuzumab HCDR3 variant ARYFGGSYAYGR (Fab, V domains shown)
VH: EVQLVESGGGLVQPGGSLRLSCAASGFNIKDTYIHWVRQAPGKGLEWVARIYPTNGYTRYADSVKGRFTISADTSKNTAYLQMNSLRAEDTAVYYCARYFGGSYAYGRWGQGTLVTVSS
VL: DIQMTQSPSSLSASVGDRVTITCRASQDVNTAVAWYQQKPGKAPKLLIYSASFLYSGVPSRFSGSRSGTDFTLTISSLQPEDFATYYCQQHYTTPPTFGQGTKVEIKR
In the case of B24, the Kd came out at 28 nM and the “log(KD (M))” value is -7.55 log(M).

B25: Trastuzumab HCDR3 variant ARTTISSSSYTG (Fab, V domains shown)
VH: EVQLVESGGGLVQPGGSLRLSCAASGFNIKDTYIHWVRQAPGKGLEWVARIYPTNGYTRYADSVKGRFTISADTSKNTAYLQMNSLRAEDTAVYYCARTTISSSSYTGWGQGTLVTVSS
VL: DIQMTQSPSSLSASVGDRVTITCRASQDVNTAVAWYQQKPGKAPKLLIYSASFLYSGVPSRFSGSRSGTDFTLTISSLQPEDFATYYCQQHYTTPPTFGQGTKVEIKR
With B25, the affinity, expressed as Kd, was 248 nM and the “log(KD (M))” value is -6.61 log(M).

B26: Trastuzumab HCDR3 variant ARGYYYYQWYYY (Fab, V domains shown)
VH: EVQLVESGGGLVQPGGSLRLSCAASGFNIKDTYIHWVRQAPGKGLEWVARIYPTNGYTRYADSVKGRFTISADTSKNTAYLQMNSLRAEDTAVYYCARGYYYYQWYYYWGQGTLVTVSS
VL: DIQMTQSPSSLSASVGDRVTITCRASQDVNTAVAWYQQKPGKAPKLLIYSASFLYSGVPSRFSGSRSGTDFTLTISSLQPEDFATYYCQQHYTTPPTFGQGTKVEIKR
With B26, the Kd was found to be 33.6 nM and the “log(KD (M))” value is -7.47 log(M).

B27: Trastuzumab HCDR3 variant ARYGSGYYGLDY (Fab, V domains shown)
VH: EVQLVESGGGLVQPGGSLRLSCAASGFNIKDTYIHWVRQAPGKGLEWVARIYPTNGYTRYADSVKGRFTISADTSKNTAYLQMNSLRAEDTAVYYCARYGSGYYGLDYWGQGTLVTVSS
VL: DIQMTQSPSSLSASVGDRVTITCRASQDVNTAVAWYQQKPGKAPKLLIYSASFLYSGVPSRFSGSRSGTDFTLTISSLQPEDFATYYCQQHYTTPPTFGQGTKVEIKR
For B27, the Kd turned out to be 51.5 nM and the “log(KD (M))” value was -7.29 log(M).

B28: Trastuzumab HCDR3 variant ARNYYGSYYFDY (Fab, V domains shown)
VH: EVQLVESGGGLVQPGGSLRLSCAASGFNIKDTYIHWVRQAPGKGLEWVARIYPTNGYTRYADSVKGRFTISADTSKNTAYLQMNSLRAEDTAVYYCARNYYGSYYFDYWGQGTLVTVSS
VL: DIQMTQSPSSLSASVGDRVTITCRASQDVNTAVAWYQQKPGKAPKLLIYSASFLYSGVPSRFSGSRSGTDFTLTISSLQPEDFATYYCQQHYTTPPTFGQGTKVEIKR
With B28, binding was characterised by a dissociation constant (Kd) of 120 nM and the “log(KD (M))” value was -6.92 log(M).

B29: Trastuzumab HCDR3 variant ARSEWFWGSFAY (Fab, V domains shown)
VH: EVQLVESGGGLVQPGGSLRLSCAASGFNIKDTYIHWVRQAPGKGLEWVARIYPTNGYTRYADSVKGRFTISADTSKNTAYLQMNSLRAEDTAVYYCARSEWFWGSFAYWGQGTLVTVSS
VL: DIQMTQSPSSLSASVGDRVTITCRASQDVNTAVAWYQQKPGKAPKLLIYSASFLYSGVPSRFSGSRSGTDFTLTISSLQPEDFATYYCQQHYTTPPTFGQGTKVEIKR
Consider B29, for which binding was put at a Kd of 114 nM and the “log(KD (M))” value is -6.94 log(M).
